According to patent publication US20140286975A1:

Assays:
CD40L = CD40L (UniProt P29965); assay: cell-based or functional assay
CD40 = CD40 (UniProt P25942); assay: cell-based or functional assay
Sequence of UniProt P25942 (P25942 21-277 limits assumed): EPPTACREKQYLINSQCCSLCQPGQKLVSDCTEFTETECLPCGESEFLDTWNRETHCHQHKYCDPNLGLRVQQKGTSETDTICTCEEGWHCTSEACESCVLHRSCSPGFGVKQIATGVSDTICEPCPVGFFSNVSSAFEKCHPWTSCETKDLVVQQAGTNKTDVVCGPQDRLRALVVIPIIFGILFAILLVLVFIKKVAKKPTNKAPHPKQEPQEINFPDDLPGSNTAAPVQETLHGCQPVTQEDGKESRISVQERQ

Sequence of UniProt P29965 (P29965 whole entry): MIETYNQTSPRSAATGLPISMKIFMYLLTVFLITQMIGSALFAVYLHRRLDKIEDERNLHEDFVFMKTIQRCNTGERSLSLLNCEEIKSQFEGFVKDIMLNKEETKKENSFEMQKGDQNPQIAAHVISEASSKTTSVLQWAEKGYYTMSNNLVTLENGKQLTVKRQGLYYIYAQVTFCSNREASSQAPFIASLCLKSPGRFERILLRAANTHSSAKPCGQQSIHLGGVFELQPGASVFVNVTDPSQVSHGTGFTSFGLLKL

Substance: anti-CD40L clone 40804 (R&D Systems) (antibody)
- IFN-γ ELISpots upon recall, T-lymphocytes primed and restimulated by doubly-loaded dendritic cells (CD40L): 68 % decrease

Substance: antiCD40 clone 82111 (R&D Systems) (antibody)
- IFN-γ ELISpots upon restimulation of T-cells primed by doubly-loaded DCs (CD40): 8 % increase
- IFN-γ ELISpots upon restimulation of T-cells primed by lysate-loaded DCs (CD40): 51 % increase
- IFN-γ ELISpots upon restimulation of T-cells primed by mRNA-loaded DCs (CD40): 86 % increase
- IFN-γ ELISpots upon restimulation, self-antigen controls (fold increase) (CD40): 6
